Publication PMC2191820

T1: Ig/EBP-1 (C/EBP gamma) (mouse, UniProt P53568 1-150)
T1 sequence: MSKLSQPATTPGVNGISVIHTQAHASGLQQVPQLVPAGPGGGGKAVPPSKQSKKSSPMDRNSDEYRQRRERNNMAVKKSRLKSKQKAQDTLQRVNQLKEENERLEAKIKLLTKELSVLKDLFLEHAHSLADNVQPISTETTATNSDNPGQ

B1: A mt13 (dsDNA)
DNA 1: GATCCTGCCCCTCGAGGTTCCCAAGAACAGA
DNA 2: GATCTCTGTTCTTGGGAACCTCGAGGGGCAG
B2: oligo A wt (dsDNA)
DNA 1: GATCCTGCCTTAGTCAACTTCCCAAGAACAGA
DNA 2: GATCTCTGTTCTTGGGAAGTTGACTAAGGCAG

Target: T1, Ig/EBP-1 (C/EBP gamma)
Experiment: EMSA

| Binder | binding result |
| --- | --- |
| B1 | no binding |
| B2 | binds |
